Test results published in the nanobody polyreactivity screen of Harvey et al. (2022).

experiment: yeast display, Sf9 membrane polyspecificity reagent, FACS + sequencing; frameworks hold sequencing errors
How it was run: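 Synthetic nanobody libraries on Saccharomyces cerevisiae BJ5465 were galactose-induced for 36–48 hours, stained 1 hour at 4 °C with 10% biotinylated, detergent-solubilized Sf9 membrane reagent and enriched on streptavidin microbeads. FACS then separated cells into low and high (top ~1%) gates by anti-HA (expression) and streptavidin (reagent binding) fluorescence. Genes were colony-PCR amplified, MiSeq 2 × 250 sequenced and CDR-length filtered. A clone's polyreactivity label is that of its gate of origin.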

Row | Sequence | polyreactivity (PSR sort gate)
1 | QVQLVESGGGLVQAGGSLRLSCAASGSIFNIYAMGWYRQAPGKERELVATITGIADSTYYADSVKGRFTISRDNAKNTVYLQMNSLKPEDTAVYFCAAEKYVAEYEYWGQGTQVTVSS | low polyreactivity
2 | QVQLVESGGGLVQAGGSLRLSCAASGSIFNIYAMGWYRQAPGKERELVATITGIADSTYYADSVKGRFTISRDNAKNTVYLQMNSLKPEDTAVYYCAAIYGSRYTTGQTRRDYYSWGQGTQVTVSS | low polyreactivity
3 | QVQLVESGGGLVQAGGSLRLSCAASGSIFNLYAMGWYRQAPGKERELVAAISRSGGSTYYADSVKGRFTISRDNAKNTVYLQMNSLKPEDTAVYYCAARYNWRYDIFDYWGQGTQVTVSS | high polyreactivity
4 | QVQLVESGGGLVQAGGSLRLSCAASGSIFNLYGMGWYRQAPGKERELVAGSTSSGGSTHYADSVKGRFTISRDNAKNTVYLQMNSLKPEDTAVYYCAKVWSFPSNYRAYYYWGQGTQVTVSS | high polyreactivity
5 | QVQLVESGGGLVQAGGSLRLSCAASGSIFNNYAMGWYRQAPGKEREFVAAISRSGGSTYYADSVKGRFTISRDNAKNTVYLQMNSLKPEDTAVYYCATDHGRYHGRYDYWGQGTQVTVSS | high polyreactivity
6 | QVQLVESGGGLVQAGGSLRLSCAASGSIFNPNAMGWYRQAPGKEREVVAAIDSGGTTDYADSVKGRFTISRDNAKNTVYLQINSLKPEDTAVYYCNADRTVTSSSFTDYDYWGQGTQVTVSS | high polyreactivity
7 | QVQLVESGGGLVQAGGSLRLSCAASGSIFNPYAMGWSRQAPGKEWELVAAISYDTTSTYYADSVKGRFTISRDNAKNTDYLQMNSLKPEDTAVYYCAARDQYGPGYRSESLDSWGQGTQETVSS | low polyreactivity
8 | QVQLVESGGGLVQAGGSLRLSCAASGSIFNPYAMGWYRQAPGKERELVAAISYTGGRTYYADSVKGRFTISRDNAKNTVYLQMNSLKPEDTAVYYCAAGHYVYWYRYQLGRYNYWGQGTQVTVSS | high polyreactivity
9 | QVQLVESGGGLVQAGGSLRLSCAASGSIFNQYAMGWHRQAPGKERELVAAISSSGGSTYYADSVKGRFTISRDNAKNTVYLQMNSLKPEDTAVYYCAARPSGRGYYLLGYWGQGTQVTVSS | low polyreactivity
10 | QVQLVESGGGLVQAGGSLRLSCAASGSIFNRNAMGWYRQAPGKERELVASINYSGGSTYYADSVKGRFTISRDNAKNTVYLQMNSLKPEDTAVYYCAADGKTYYRGGGPYYIYYRYDYWGQGTQVTVSS | low polyreactivity
11 | QVQLVESGGGLVQAGGSLRLSCAASGSIFNRYAIGWYRQAPGKERELFAAISSTGSTYYADSVKGRFTISRDNAKKTVYLQMNRLKPEDTAVYYCNADVLALAPYDYWGQGTQVNVSS | low polyreactivity
12 | QVQLVESGGGLVQAGGSLRLSCAASGSIFNRYAMGWYRQAPGKERELVAAIRSDGSTYYADSVKGRFTISRDNAKNTVYLQMNSLKPEDSAVYYCAAPLHRRYYEMDYWGQGSQVTVSS | low polyreactivity
13 | QVQLVESGGGLVQAGGSLRLSCAASGSIFNRYAMGWYRQAPGKERELVAAIRSGDNTNYADSVKGRFTISRDNAKNTVYLQMNSLKPEDTAVYYCAIRTYYRSRTVGWGKMDYWGQGTQVTVSS | high polyreactivity
14 | QVQLVESGGGLVQAGGSLRLSCAASGSIFNRYTMGWYRQAPGKERELVAAISKRGGSTYYADSVKGRFTISRDNAKNTVYLQMNSLKPEDPAVYYCAAAGYHSGKGGGYWGQGTQVTVSS | high polyreactivity
15 | QVQLVESGGGLVQAGGSLRLSCAASGSIFNSNAMGWYRQAPGKERELVATIRWSGGSTNYADSVKGRFTISRDNAKNTVYLQMNSLKPEDTAVYYCAVLPRGSNGMDYWGQGTQVTVSS | low polyreactivity
16 | QVQLVESGGGLVQAGGSLRLSCAASGSIFNSYDMGWYRQAPGKERELVAAIRSRVGSTYYADSVKGRFTISRDNAKNSVYLQMNSLKQEDTAVYYCIKDNAVDRLPWFQVTYDYWGQGTQVTVSS | low polyreactivity

Row | Sequence | polyreactivity (PSR sort gate)
17 | QVQLVESGGGLVQAGGSLRLSCAASGSIFNTYAMGWYRQAPGKEREFVASITYRGSNTYYADSVKGRFTISRDNAKNTVYLQMNSLKPEDTAVYDCAADSFDYRPEYDYWGQGTQVTVSS | low polyreactivity
18 | QVQLVESGGGLVQAGGSLRLSCAASGSIFNVNSMGWYRQAPGKERELVAAISSGGDTYYADSVKGRFTISRDNAKNTVYLQMNSLKPEDTAVYYCAKQSYTLYTLLYDYWGLGTQVTVSS | low polyreactivity
19 | QVQLVESGGGLVQAGGSLRLSCAASGSIFNWNAKAWYRQAPVKERELVAAITGSGTSTYYADSVKGRFTISPDYAKNTVYLQMNSLKPQDTAVYYCAVTRRSRYGYWGQGTQVTVSS | high polyreactivity
20 | QVQLVESGGGLVQAGGSLRLSCAASGSIFNWYAMGWYRQARGKERELVAAISYSGTRTYYADSVKGRFTISRDNAKNTVNLQLNSLKPEDTAVYYCNRAYYTRWYTKFDYWGQGTQVTVSS | high polyreactivity
21 | QVQLVESGGGLVQAGGSLRLSCAASGSIFNYNAMGWYRQAPGKERELVAAISWSGGSTYYADSVKGRFTISRDNAKNTVYLQMNSLKPEDTAVYYCAVATGLLYKSHGYWGQGTQVTVSS | low polyreactivity
22 | QVQLVESGGGLVQAGGSLRLSCAASGSIFNYYAMGWYRQAPGKERELVAAISSGDTTYYADSVKGRFTISRDNAKNTVYLQMNSLKPQDTAVYYCAAKPRSQVRYGYWGQGTQVTVSS | low polyreactivity
23 | QVQLVESGGGLVQAGGSLRLSCAASGSIFNYYAMGWYRQAPGKERELVAAITSSDGRTFYADSVKGRFTISRDNAKNKVYLQMNSLKPEDTAFYYCAAEWTSRYSTYEYWGQGTQVTVSS | low polyreactivity
24 | QVQLVESGGGLVQAGGSLRLSCAASGSIFNYYAMGWYRQAPGKERELVAGITTSGGSTYYADSVKGRFTISRDNAKNTVYLQMNSLKPEDTAVYYCAAYDYISSTYFLDDYWGQGTQVTVSS | low polyreactivity
25 | QVQLVESGGGLVQAGGSLRLSCAASGSIFNYYAMGWYRQAPGKERELVATITTRDGTTYYADSVKGRFTISRDNAKNTVYLQMNSLKPEDTAVYYCAKSWWPSRRTYSFYYWGQGTQVTVSS | high polyreactivity
26 | QVQLVESGGGLVQAGGSLRLSCAASGSIFNYYAMGWYRQAPGQERELVASISRGGSTNYADSVKGRFTISRDNAKNTVYLQMNSLKPEDTAVYYCNAEGWPGNVVYGYYYWGQGTQVTVSS | low polyreactivity
27 | QVQLVESGGGLVQAGGSLRLSCAASGSIFNYYGMGWYRQAPGKERELVAAISYSGGSTYYADSVKGRFTISRDNAKNTVYLQMNSLKPEDTAVYYCAKRYYPVIRYHSTYDSWGQGTQVTVSS | low polyreactivity
28 | QVQLVESGGGLVQAGGSLRLSCAASGSIFNYYTMGWYRQAPGKERELVAVITWSDDSTYYADSVKGRFTISRDNAKNTVYLQMNSLKPEDTAVYYCNARSWGWYRIAYGYWGQGTQVTVSS | low polyreactivity
29 | QVQLVESGGGLVQAGGSLRLSCAASGSIFPAYDMGWYRQAPGKERELVAAIDRGGSTYYADSVKGRFTISRDNAKNTVYLQMNSLKPEDTAVYYCATDGQEYPNYISSAGFDYWGQGTQVTVSS | low polyreactivity
30 | QVQLVESGGGLVQAGGSLRLSCAASGSIFPDYAMGWYRPAPGKERELVAAIDTSTTDTYYADSVKGRFTISRDNAKNTVYLQMKSQKPEDTAVYYSAADAYDDPYGFWGQGTQVTVSS | high polyreactivity
31 | QVQLVESGGGLVQAGGSLRLSCAASGSIFPDYAMGWYRQAPGKERELVAADSVKGRFTISRDNAKNTVYLQMNSLKPEDTAVYYCNKDYIIRRGPIVYYGFDYWGQGNQVTVSS | low polyreactivity
